Reference: patent publication US20220267463A1 (Hoffmann-La Roche, published 2022)

B1: PRIT Split Antibody with DOTAM-VH-P1AD8749 (antibody, human IgG1, kappa, L234A L235A)
heavy 1: QVQLVQSGAEVKKPGASVKVSCKASGYTFTEFGMNWVRQAPGQGLEWMGWINTKTGEATYVEEFKGRVTFTTDTSTSTAYMELRSLRSDDTAVYYCARWDFAYYVEAMDYWGQGTTVTVSSASTKGPSVFPLAPSSKSTSGGTAALGCLVKDYFPEPVTVSWNSGALTSGVHTFPAVLQSSGLYSLSSVVTVPSSSLGTQTYICNVNHKPSNTKVDKKVEPKSCDKTHTCPPCPAPEAAGGPSVFLFPPKPKDTLMISRTPEVTCVVVDVSHEDPEVKFNWYVDGVEVHNAKTKPREEQYNSTYRVVSVLTVLHQDWLNGKEYKCKVSNKALGAPIEKTISKAKGQPREPQVCTLPPSRDELTKNQVSLSCAVKGFYPSDIAVEWESNGQPENNYKTTPPVLDSDGSFFLVSKLTVDKSRWQQGNVFSCSVMHEALHNHYTQKSLSLSPG
heavy 2: not shown
light: DIQMTQSPSSLSASVGDRVTITCKASAAVGTYVAWYQQKPGKAPKLLIYSASYRKRGVPSRFSGSGSGTDFTLTISSLQPEDFATYYCHQYYTYPLFTFGQGTKLEIKRTVAAPSVFIFPPSDEQLKSGTASVVCLLNNFYPREAKVQWKVDNALQSGNSQESVTEQDSKDSTYSLSSTLTLSKADYEKHKVYACEVTHQGLSSPVTKSFNRGEC
notes: Full length anti-CEA (CH1A1A) human IgG1 with knob-into-hole and P329G LALA; one heavy chain carries the DOTAM VH at its C-terminus; No DOTAM VL; Bivalent for CEA; also called CEA-split-DOTAM-VH; P1_B
B2: P1AF0712 (antibody, human IgG1, kappa, L234A L235A)
heavy 1: not shown
heavy 2: QVQLVQSGAEVKKPGASVKVSCKASGYTFTEFGMNWVRQAPGQGLEWMGWINTKTGEATYVEEFKGRVTFTTDTSTSTAYMELRSLRSDDTAVYYCARWDFAYYVEAMDYWGQGTTVTVSSASTKGPSVFPLAPSSKSTSGGTAALGCLVKDYFPEPVTVSWNSGALTSGVHTFPAVLQSSGLYSLSSVVTVPSSSLGTQTYICNVNHKPSNTKVDKKVEPKSCDKTHTCPPCPAPEAAGGPSVFLFPPKPKDTLMISRTPEVTCVVVDVSHEDPEVKFNWYVDGVEVHNAKTKPREEQYNSTYRVVSVLTVLHQDWLNGKEYKCKVSNKALGAPIEKTISKAKGQPREPQVCTLPPSRDELTKNQVSLSCAVKGFYPSDIAVEWESNGQPENNYKTTPPVLDSDGSFFLVSKLTVDKSRWQQGNVFSCSVMHEALHNHYTQKSLSLSPGGGGGSGGGGSGGGGSGGGGSQAVVIQESALTTPPGETVTLTCGSSTGAVTASNYANWVQEKPDHLFTGLIGGHNNRPPGVPARFSGSLIGDKAALTIAGTQTEDEAIYFCALWYSDHWVIGGGTKLTVL
light: B1 light
notes: also called CEA specific SPLIT antibody (DOTA-VL); P6_A
B3: P1AF0713 (antibody, human IgG1, kappa, L234A L235A)
heavy 1: B1 heavy 1
heavy 2: not shown
light: B1 light
notes: also called CEA specific SPLIT antibody (DOTA-VH-AST); P6_B

Legend:
[1] = target: T1, carcinoembryonic antigen (CEA) on MKN-45 cells (human, UniProt P06731 35-685); assay: flow cytometry on MKN45 cells, hemibody mixed 1:1 with human ISO control, detection with anti-human IgG(H+L) (title: A488; legend box: FITC)
T1 construct: whole, on cells; also called CEACAM5; Carcinoembryonic antigen-related cell adhesion molecule 5
T1 sequence (looked up): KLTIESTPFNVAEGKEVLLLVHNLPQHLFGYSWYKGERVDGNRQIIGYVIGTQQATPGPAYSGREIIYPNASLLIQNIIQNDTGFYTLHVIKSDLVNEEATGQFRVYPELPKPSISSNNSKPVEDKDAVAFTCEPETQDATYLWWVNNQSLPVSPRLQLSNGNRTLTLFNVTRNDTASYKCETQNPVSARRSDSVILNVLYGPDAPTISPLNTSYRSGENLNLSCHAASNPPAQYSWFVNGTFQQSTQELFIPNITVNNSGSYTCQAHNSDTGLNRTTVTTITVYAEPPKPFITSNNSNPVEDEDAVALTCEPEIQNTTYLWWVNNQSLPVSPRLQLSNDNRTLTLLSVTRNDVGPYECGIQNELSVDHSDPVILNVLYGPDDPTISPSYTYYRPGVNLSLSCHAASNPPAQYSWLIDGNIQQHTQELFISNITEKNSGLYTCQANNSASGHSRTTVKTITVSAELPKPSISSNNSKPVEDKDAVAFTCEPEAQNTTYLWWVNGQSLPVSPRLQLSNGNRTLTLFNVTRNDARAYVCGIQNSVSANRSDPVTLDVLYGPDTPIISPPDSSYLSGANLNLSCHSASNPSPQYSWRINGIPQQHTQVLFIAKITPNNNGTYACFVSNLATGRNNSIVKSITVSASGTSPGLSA
Description: To assess the functionality of the split antibodies or hemibodies, MKN-45 cells were detached from the culture vessel using accutase at 37° C. for 10 minutes. Subsequently, the cells were washed twice in PBS, and seeded into 96 well v-bottom plates to a final density of 4×10⁶ cells/well.
Subsequently, the cells were incubated for 1 h on ice and washed twice in PBS. The cell pellet was resuspended and 40 μl/well of detection reagent was added, either <human IgG(H+L)>FITC, (10 μg/ml) or Pb_Dotam_FITC 1:100=>(10 μg/ml) in PBS/5% FCS. After 60 min incubation on ice, the cells were washed twice in PBS and resuspended in 200 μl PBS/5% FCS for measurement of FITC fluorescence using a FACS canto.

[2] = target: T1, carcinoembryonic antigen (CEA) on …; assay: flow cytometry on MKN-45 cells, detection with anti-huIgG(H+L)-Alexa488
Description: MKN-45 cells were detached from the culture bottle using Trypsin and were counted using a Casy cell counter. After pelleting at 4° C., 300 g the cells were resuspended in FACS Buffer (2.5% FCS in PBS), adjusted to 2.0E+06 cells/mL dispensed to 96-well PP V-bottom-Platte (25 μL/well=5.0E+04 Zellen/well).
The CEA specific SPLIT antibodies (P1AF0712 or P1AF0713 respectively) were adjusted to 40 μg/mL in FACS buffer, resulting in a final concentration of 10 μg/mL. […] The cells were then washed twice in FACS buffer and resuspended in 70 μl/well FACS buffer for measurement using a FACS Canto (BD, Pharmingen). […] Both antibodies were added to the cells either separated followed by buffer or combined and incubated at 4° C. for 1 h. The cells were then washed twice in FACS buffer. After washing, the cells were resuspended in 50 μL FACS-buffer containing secondary antibody (<huIgG(H+L)>-Alexa488, c=10 μg/mL) and incubated 1 h at 4° C.

| Binder | EC50 (read off the curve) [1] | EC50 [2] |
| --- | --- | --- |
| B1 | ~1 µg/mL |  |
| B2 |  | 2.7 µg/mL |
| B3 |  | 2.3 µg/mL |
